Test results: patent US10632208B2, “Peptide-mediated drug delivery across epithelial barrier” (Purdue Research Foundation, priority 2017, dated 2020)

Assays:
Hsp60 / IKK-β = target: T1, Hsp60 / IKK-β (Homo sapiens, UniProt P10809); experiment: Co-immunoprecipitation of Hsp60 and IKKβ from Caco-2 cell lysates; format: cell-based; conditions: LAP 1 μg/ml, 30 min
T1 construct: endogenous in cells; host or cells: Caco-2 (human colon carcinoma, ATCC HTB37)
Procedure: Caco-2 cells were treated with or without purified LAP (1 μg/mL) for 30 min, rinsed with cold PBS, and lysed in Nondiet P-40 (NP-40) lysis buffer (20 mM Tris HCl, pH 8,137 mM NaCl, 1% NP-40, 2 mM EDTA). The cell lysates were pre-cleared with 10 μl protein G agarose beads (MicroProtein Technologies) for 1 h and the lysates were incubated with 2 μg of anti-IKKβ, 2 μg of anti-Hsp60, rabbit serum or normal mouse serum overnight at 4° C. The lysates were further mixed with 20 μL protein G agarose beads for 3 h at 4° C. The beads were washed five times with 1 ml NP-40 lysis buffer. The protein precipitates were analyzed by immunoblotting, and the complexes were visualized by chemiluminescence assay.

NF-κB = NF-κB luciferase reporter assay in RAW 264.7 cells; format: cell-based, murine
Procedure: The NF-κB Luciferase reporter RAW 264.7 cell line (Novus Biologicals), which expresses an optimized Renilla luciferase reporter gene (RenSP) under the transcriptional control of an NF-κB response element, was used. The cells were seeded (1×10^5 cells/well) into 96-well luminometer-compatible plates for 16 h and then treated with analytes for 6 h. Media from each well were aspirated, and then 100 μL of ice-cold PBS was added to each well. The plates were then frozen solid at −80° C. overnight to completely lyse the cells, thawed back to room temperature, and luciferase assays were performed using the LightSwitch Luciferase assay kit (Novus Biologicals). Luminescence was measured as the relative luminescence units (RLU) using Spectramax (Spectramax, Molecular Devices) and reported as the relative fold change compared with that of the control cells that were treated with media alone. Recombinant human or mouse TNF-α (R&D Systems) and polymyxin B, LPS (E. coli Serotype R515, Re, TLR grade), and proteinase K (each from Sigma-Aldrich) were used.

Caco-2 cell monolayers = experiment: Apical-to-basolateral flux of paracellular marker FD4 through Caco-2 monolayers; format: cell-based, human; conditions: LAP 1 μg/mL, over a 72-h period; TNF-α 10 ng/mL positive control
Procedure: To determine the effect of LAP on Caco-2 permeability at specified time points (0, 24, 48 and 72 h) following incubation with recombinant purified LAP, 100 μl of FD4 (1 mg/mL in DMEM) was added to the apical side and the fluorescence readings (Em: 485 nm; Ex: 520 nm; Spectramax, Molecular Devices) for the basal medium (100 μl) were measured. Human TNF-α (10 ng/mL, R&D Systems) was added to both apical and basal sides and used as a positive control.

T1 sequence (P10809 27-573): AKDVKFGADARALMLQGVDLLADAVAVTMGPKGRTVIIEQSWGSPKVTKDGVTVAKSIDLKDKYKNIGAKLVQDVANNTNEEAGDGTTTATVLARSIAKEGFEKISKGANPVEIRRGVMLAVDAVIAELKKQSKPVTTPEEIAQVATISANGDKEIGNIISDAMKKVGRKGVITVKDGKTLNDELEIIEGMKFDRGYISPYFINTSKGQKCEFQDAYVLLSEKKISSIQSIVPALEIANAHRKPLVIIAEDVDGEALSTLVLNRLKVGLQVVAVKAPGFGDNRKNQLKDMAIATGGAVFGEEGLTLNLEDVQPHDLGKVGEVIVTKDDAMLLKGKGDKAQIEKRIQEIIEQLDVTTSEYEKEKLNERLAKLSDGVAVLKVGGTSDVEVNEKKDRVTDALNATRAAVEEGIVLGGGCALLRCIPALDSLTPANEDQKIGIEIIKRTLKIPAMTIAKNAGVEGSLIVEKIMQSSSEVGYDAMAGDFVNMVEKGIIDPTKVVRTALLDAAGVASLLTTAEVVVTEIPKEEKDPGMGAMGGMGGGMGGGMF

B1: LAP: Listeria adhesion protein, alcohol acetaldehyde dehydrogenase of Listeria monocytogenes, 866 aa, 94 kDa; recombinant, histidine-tagged form SEQ ID NO: 10 (protein)
chain: MAIKENAAQEVLEVQKVIDRLADNGQKALKAFESYNQEQVDNIVHAMALAGLDQHMPLAKLAVEETGRGLYEDKCIKNIFATEYIWNNIKNNKTVGVINEDVQTGVIEIAEPVGVVAGVTPVTNPTSTTLFKAIIAIKTRNPIIFAFHPSAQRCSSAAAKVVYDAAIAAGAPEHCIQWVEKPSLEATKQLMNHDKVALVLATGGAGMVKSAYSTGKPALGVGPGNVPAYIDKTAKIKRSVNDIILSKSFDQGMICASEQAVIVDKEVAKEVKAEMEANKCYFVKGAEFKKLESYVINPEKGTLNPDVVGKSPAWIANQAGFKVPEDTKILVAEIKGVGDKYPLSHEKLSPVLAFIEAANQAEAFDRCEEMLVYGGLGHSAVIHSTDKEVQKAFGIRMKACRIIVNAPSAQGGIGDIYNGFIPSLTLGCGSYGKNSVSQNVSATNLLNVKRIADRRNNMQWFKLPPKIFFEKYSTQYLQKMEGVERVFIVTDPGMGSFKYVDVVIEHLKKRGNDVAYQVFADVEPDPSDVTVYKGAELMKDFKPDTIIALGGGSAMDAAKGMWLFYEHPEASFFGLKQKFLDIRKRTFKYPKLGGKAKFVAIPTTSGTGSEVTPFAVITDKENNIKYPLADYELTPDVAIVDAQYVTTVPAHITADTGMDVLTHAIESYVSVMASDYTRGLSIRAIELVFENLRESVLTGDPDAREKMHNASALAGMAFANAFLGINHSLAHKIGPEFHIPHGRANAILMPHVIRYNALKPKKHALFPRYESFRADEDYARISRIIGFPAATTEEGVKSLVDEIIKLGKDVGIDMSLKGQNVAKKDLDAVVDTLADRAFMDQCTTANPKQPLVSELKEIYLEAYKGV
modifications: Listeria monocytogenes
- interaction of Hsp60 with IKK-β (Hsp60 / IKK-β): Hsp60 co-precipitation
- NF-κB activation ability after polymyxin-B treatment (NF-κB): retained the NF-κB activation ability
- NF-κB activation after proteinase-K treatment (NF-κB): abolished
- NF-κB activation ability after heat treatment (NF-κB; 100° C., 10 min): abolished the NF-κB activation ability
- NF-κB activation (NF-κB; purified proteins, LPS positive control): NF-κB activation in a concentration-dependent manner
- FD4 permeability (Caco-2 cell monolayers): significant increase in FD4 permeability equivalent to TNF-α
